Measurements from the supplement of paper PMC9170038.

What was measured:
MS2 coat protein [1] = experiment: apparent KD of MS2 coat protein, switch OFF state (with FMN for OFF switches, without FMN for ON switches); designed switch direction (-1 OFF switch, 1 ON switch): -1; higher = weaker reporter binding; conditions: FMN input: 0 or 200 uM; Eterna round: R93 (includes R88 designs)
In short: (§1)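 The designed RNA switches were transcribed on-chip from Illumina sequencing clusters. In 100 mM Tris-HCl pH 7.5, 80 mM KCl and 4 mM MgCl2, without or with constant ligand, they were titrated with SNAP-549-labelled MS2 coat protein from 0.7 or 1.5 nM to 3 µM in twofold steps. Apparent KD is the per-design median of normalised cluster binding-curve fits.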

MS2 coat protein [2] = experiment: apparent KD of MS2 coat protein, switch ON state; designed switch direction (-1 OFF switch, 1 ON switch): -1; higher = weaker reporter binding; conditions: FMN input: 0 or 200 uM; Eterna round: R93 (includes R88 designs)
In short: as §1

GAAAACAGAGGAUAUACAAAAUUAUGACGAAAGUCAUAAAAACAUGAGGAUCACCCAUGUAGAAGGCUGAAGAA [Meechl MS2 Ex2]
apparent KD of MS2 coat protein (MS2 coat protein [1]): 21.6 nM
apparent KD of MS2 coat protein (MS2 coat protein [2]): 28.2 nM

AAAAAACAUGAGGAUCACCCAUGUGAGGAUAUUAAAAAUAAGAAGGCAUAAAAAAAAAUAAGAAGGCACAUGAA [Meechl MS2 Ex1]
apparent KD of MS2 coat protein (MS2 coat protein [1]): 33.2 nM
apparent KD of MS2 coat protein (MS2 coat protein [2]): 27.9 nM

AAAAAGGCAGGAUAUACAAAAAAAAAAAAAAAAAAGGAGGGACAUGAGGAUCACCCAUGUAGAAGGGCCAAAAA [Kai Theodor Erikson]
apparent KD of MS2 coat protein (MS2 coat protein [1]): 121 nM
apparent KD of MS2 coat protein (MS2 coat protein [2]): 97.4 nM

UCCUCACAUGAGGAUCACCCAUGUUAGGAUAUGCCCGGCGGGUUCUGACCUGCCUAAAGCAGAAGGAACGUGCG [Cexequge]
apparent KD of MS2 coat protein (MS2 coat protein [1]): 70.1 nM
apparent KD of MS2 coat protein (MS2 coat protein [2]): 16.6 nM

AACAGUACAGGAUAUACAUGAGGAUCACCCAUGUGACAAUUAAGUGGCGUACCACAGUGUAGAAGGGUACUGGA [Ruby 84]
apparent KD of MS2 coat protein (MS2 coat protein [1]): 113 nM
apparent KD of MS2 coat protein (MS2 coat protein [2]): 93.1 nM

AAGAAACAUGAGGAUCACCCAUGUCAGGAUAUGCAAAACUGACGAAAGUCAGAAGAAAGCAGAAGGGACUAGAA [5-pair stack]
apparent KD of MS2 coat protein (MS2 coat protein [1]): 52 nM
apparent KD of MS2 coat protein (MS2 coat protein [2]): 29.1 nM

AGUAGAUCAGGAUAUACAUAAAUGAUAAUUAUGUAACUUUUACAUGAGGAUCACCCAUGUAGAAGGGAUCUACA [Ex2 Design 130: Not so Super Stable 18]
apparent KD of MS2 coat protein (MS2 coat protein [1]): 15.8 nM
apparent KD of MS2 coat protein (MS2 coat protein [2]): 14.8 nM

AUCAUGUAAGGAUAUACAAGAAAAGAAAAGAAAGAAAAGAAGUAGAAGGUACAUGAGGAUCACCCAUGUAAGAA [EteRNA is fun!]
apparent KD of MS2 coat protein (MS2 coat protein [1]): 31.5 nM
apparent KD of MS2 coat protein (MS2 coat protein [2]): 61 nM

UGCAUGUAAGGAUAUGCAACCGGCGCUCAUUAACCGGUCAAGCAGAAGGUACAUGAGGAUCACCCAUGUGUCCG [Esteleus]
apparent KD of MS2 coat protein (MS2 coat protein [1]): 52.2 nM
apparent KD of MS2 coat protein (MS2 coat protein [2]): 17.2 nM

AAAAAGCGAGGAUAUACAUGAGGAUCACCCAUGUGAAAAAAAAAAAAAAAAAAAAAAAGUAGAAGGCGCAAAAA [GC super strong! + G boost]
apparent KD of MS2 coat protein (MS2 coat protein [1]): 39.2 nM
apparent KD of MS2 coat protein (MS2 coat protein [2]): 46.4 nM

AACAUGUCAGGAUAUGCGAAGGCGUCUGACAGACGAGGCUAGCAGAAGGGACAUGAGGAUCACCCAUGUAAAAA [Mod of Power Strip by EINando888 - changed 3 and 30 to C]
apparent KD of MS2 coat protein (MS2 coat protein [1]): 48.8 nM
apparent KD of MS2 coat protein (MS2 coat protein [2]): 111 nM

AGGAAACAUGAGGAUCACCCAUGUGAGGAUAUAGGAAAGAAAAGAAAAGAAAGAAGAAUUAGAAGGCACAAGAA [Djet]
apparent KD of MS2 coat protein (MS2 coat protein [1]): 14.9 nM
apparent KD of MS2 coat protein (MS2 coat protein [2]): 20.5 nM

AAAAAGUGAGGAUAUGCAGUGGCCUGUAGACGCAAGCACUUGUAGAAGGCACAUGAGGAUCACCCAUGUUUAAA [EX4 Malc#30]
apparent KD of MS2 coat protein (MS2 coat protein [1]): 28 nM
apparent KD of MS2 coat protein (MS2 coat protein [2]): 30.9 nM

AAAAAACAUGAGGAUCACCCAUGUAAGGAUAUGCUGGUGCGAAAGCACAAAAAAAACAGCAGAAGGUACAAAAA [66%, Wbt, 37]
apparent KD of MS2 coat protein (MS2 coat protein [1]): 27.5 nM
apparent KD of MS2 coat protein (MS2 coat protein [2]): 17.4 nM

CUCUUGUCAGGAUAUGAAAGAAAAGAAAAGAAAGAAAAGAAUCAGAAGGGACAUGAGGAUCACCCAUGUAAGAA [EteRNA is fun!]
apparent KD of MS2 coat protein (MS2 coat protein [1]): 76.9 nM
apparent KD of MS2 coat protein (MS2 coat protein [2]): 64 nM

AACAAGACAGGAUAUACAUGAGGAUCACCCAUGUGAGAAUAAAGUGGCGUAACACAAAGUAGAAGGGUCAUGGA [Ruby 6]
apparent KD of MS2 coat protein (MS2 coat protein [1]): 55.5 nM
apparent KD of MS2 coat protein (MS2 coat protein [2]): 32.6 nM

AAGAGACAUGAGGAUCACCCAUGUGAGGAUAUGACGUAAAUAAAGAAAGAAGAAAUCGUCAGAAGGCACACCAA [55%, Disencluded 2, 4]
apparent KD of MS2 coat protein (MS2 coat protein [1]): 75.8 nM
apparent KD of MS2 coat protein (MS2 coat protein [2]): 48.4 nM

AACUGACAUGAGGAUCACCCAUGUCAGGAUAUGACUUGACGAAAAAAAACAUGUCAUGUCAGAAGGGACAUGGA [Design 89: Sub-opt Z]
apparent KD of MS2 coat protein (MS2 coat protein [1]): 27.6 nM
apparent KD of MS2 coat protein (MS2 coat protein [2]): 26.4 nM

AAAAAACAUGAGGAUCACCCAUGUAAGGAUAUCUAAAAUAAAAGAAAAAUAAAGAAAAGGAGAAGGUACAUGCA [JL wbt mod 26]
apparent KD of MS2 coat protein (MS2 coat protein [1]): 34.5 nM
apparent KD of MS2 coat protein (MS2 coat protein [2]): 32 nM

AAGAAACAUGAGGAUCACCCAUGUCAGGAUAUCAAAAAGAAAAGAAAAGAAAGAAGAAUGAGAAGGGACAAAGG [Meryibre Khety I]
apparent KD of MS2 coat protein (MS2 coat protein [1]): 61.7 nM
apparent KD of MS2 coat protein (MS2 coat protein [2]): 50.7 nM

AGAAAGUGAGGAUAUUCGGAUAGGAAAACGAAAACCUAUCCGAAGAAGGCACAUGAGGAUCACCCAUGUAAAAA [Mat - Exaclusion 4 - Eli mod - D38]
apparent KD of MS2 coat protein (MS2 coat protein [1]): 37.5 nM
apparent KD of MS2 coat protein (MS2 coat protein [2]): 33.2 nM

AACUAGCUAGGAUAUACAUGAGGAUCACCCAUGUAAAAAAAAAAAAAAAGAUCAAAAUGUAGAAGGAGCUAGUA [Design 2 - Brourd - Exclusion 3]
apparent KD of MS2 coat protein (MS2 coat protein [1]): 58.5 nM
apparent KD of MS2 coat protein (MS2 coat protein [2]): 59.6 nM

UAAAAGCGAGGAUAUACAUGAGGAUCACCCAUGUGAAAGAAAAAUAAAAAAAAAAAAAGUAGAAGGCGCUAAAA [Ex 3 #2]
apparent KD of MS2 coat protein (MS2 coat protein [1]): 65.7 nM
apparent KD of MS2 coat protein (MS2 coat protein [2]): 58.9 nM

AAAAAAGGAGGAUAUACGUACAUGUCAAAAGACGUGAAGGGACAUGAGGAUCACCCAUGUAGAAGGCCUAAAAA [JL Part Open 33]
apparent KD of MS2 coat protein (MS2 coat protein [1]): 78.3 nM
apparent KD of MS2 coat protein (MS2 coat protein [2]): 45.2 nM

CAGUACUGAGGAUAUACAUGAGGAUCACCCAUGUGUUCCAGCUAGGAAACUAGCAAAAGUAGAAGGCAGUACUG [Ex3: 828]
apparent KD of MS2 coat protein (MS2 coat protein [1]): 343 nM
apparent KD of MS2 coat protein (MS2 coat protein [2]): 24.6 nM

AAAACACAUGAGGAUCACCCAUGUGAGGAUAUGCUAUGGAAAAUAAAAAUAAAACAUAGCAGAAGGCGCAGGAA [Denovo 20]
apparent KD of MS2 coat protein (MS2 coat protein [1]): 22.9 nM
apparent KD of MS2 coat protein (MS2 coat protein [2]): 29.8 nM

AAGAUGUCAGGAUAUGCUUGUCGUCACAAAAGUGAUGACGAGCAGAAGGGACAUGAGGAUCACCCAUGUAAAGA [JL eternac mod 3]
apparent KD of MS2 coat protein (MS2 coat protein [1]): 303 nM
apparent KD of MS2 coat protein (MS2 coat protein [2]): 148 nM

AAGAAAGGAGGAUAUACAUGAGGAUCACCCAUGUAAAAGAAAGAAAAGGGAAAGAAAAGUAGAAGGCCUAAGAA [Usermaatre-meryamun Ramesses III]
apparent KD of MS2 coat protein (MS2 coat protein [1]): 28.7 nM
apparent KD of MS2 coat protein (MS2 coat protein [2]): 39.2 nM

AAAAAACAUGAGGAUCACCCAUGUAAGGAUAUGCAGAUUAUAAGAAAAAAAAAAAAAAGCAGAAGGUACAAAAA [Default title]
apparent KD of MS2 coat protein (MS2 coat protein [1]): 28.2 nM
apparent KD of MS2 coat protein (MS2 coat protein [2]): 37.4 nM

AACGAGUCAGGAUAUACAAAAAAUAAAUAAAUAAAAUAAAAGUAGAAGGGACAUGAGGAUCACCCAUGUAAAUA [JR_Exc004_Sub020]
apparent KD of MS2 coat protein (MS2 coat protein [1]): 44 nM
apparent KD of MS2 coat protein (MS2 coat protein [2]): 59.3 nM

AAGAACCGAGGAUAUACUAAAGAAAUGAAAAGAAAUAAAGAACAUGAGGAUCACCCAUGUAGAAGGCGGAAGAA [Nebefawre]
apparent KD of MS2 coat protein (MS2 coat protein [1]): 23.4 nM
apparent KD of MS2 coat protein (MS2 coat protein [2]): 27.4 nM
